From PMC3492137

How the values were obtained:
[1] = target: human immunoglobulin G, biotinylated; assay: microtiter plate dissociation assay (immobilised mutant, hIgG-biotin detected with streptavidin-alkaline phosphatase, A405); details: 2 µg/ml mutant conjugated, 6 µM hIgG-biotin, read off a plot, scale: normalized absorbance at 405 nm
[2] = target: Fc portion of human immunoglobulin G, biotinylated; assay: yeast surface display end-point dissociation assay, flow cytometry (strep-PE); details: dissociation at pH 4.5 for 30 min; parent: est. 0.88; read off a plot; scale: normalized fluorescence
[3] = dissociation at pH 2.5 for 30 min, parent: est. 0.33
[4] = dissociation at pH 3.5 for 30 min, parent: est. 0.91
[5] = dissociation at pH 4.5 for 30 min, parent: est. 1.0

Row | Substance | response [1, 3] | response [1, 4] | response [1, 5] | response [2]
1 | Sso7d-hFc with a C-terminal cysteine Sso7d-ev-hFc | 0.35 | 0.87 | 1 | 
2 | Sso7d-hFc with a C-terminal cysteine Y40H | 0.33 | 0.79 | 1 | 
3 | Sso7d-hFc, yeast cell surface fusion Sso7d-ev-hFc |  |  |  | 0.06
4 | Sso7d-hFc, yeast cell surface fusion Y40H |  |  |  | 0.1
